Results reported in article PMC4783044, “Stoichiometry and Change of the mRNA Closed-Loop Factors as Translating Ribosomes Transit from Initiation to Elongation” (PLoS ONE, 2016).

T1: Flag-PAB1 (yeast, UniProt P04147 1-577)
T1 sequence (looked up): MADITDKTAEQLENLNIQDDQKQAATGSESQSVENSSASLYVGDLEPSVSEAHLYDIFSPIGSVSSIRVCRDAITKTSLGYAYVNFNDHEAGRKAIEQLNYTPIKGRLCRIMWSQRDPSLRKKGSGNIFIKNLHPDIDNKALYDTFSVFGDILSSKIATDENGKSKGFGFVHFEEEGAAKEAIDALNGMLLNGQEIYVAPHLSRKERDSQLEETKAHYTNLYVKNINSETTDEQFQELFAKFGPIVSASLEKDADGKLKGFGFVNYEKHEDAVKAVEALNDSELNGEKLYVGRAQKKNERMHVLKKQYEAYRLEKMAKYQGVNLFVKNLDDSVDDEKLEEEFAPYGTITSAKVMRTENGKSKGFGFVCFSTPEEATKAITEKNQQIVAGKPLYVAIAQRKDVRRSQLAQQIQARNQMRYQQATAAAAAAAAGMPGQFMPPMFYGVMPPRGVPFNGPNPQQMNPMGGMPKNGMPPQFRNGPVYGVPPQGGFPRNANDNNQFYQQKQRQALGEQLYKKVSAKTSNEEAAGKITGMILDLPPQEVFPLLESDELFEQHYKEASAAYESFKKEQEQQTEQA

T2: eIF4E-Flag (yeast, UniProt P07260 1-213)
T2 sequence (looked up): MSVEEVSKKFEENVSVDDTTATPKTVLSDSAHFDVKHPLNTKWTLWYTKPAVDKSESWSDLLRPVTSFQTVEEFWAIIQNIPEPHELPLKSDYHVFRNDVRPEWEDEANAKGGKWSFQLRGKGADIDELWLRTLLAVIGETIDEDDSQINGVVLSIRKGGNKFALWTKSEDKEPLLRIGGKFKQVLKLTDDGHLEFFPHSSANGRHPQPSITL

B1: SLF1-GFP (natural protein, yeast, UniProt Q12034 1-447, looked up)
chain: MSSQNLNDNPKNTSSAAEDKKKQTSSLKLAPIPTTSPWKSSSPDSNTVIPVEELRDISKTAKPSKNGSGSIKLTSNTKWTPITPSVIISGSKDTNSKSGKNSKNSKTNKKMKKRGKYNNDINKKDFNGQTNSTSEISNVSNLESKPLDANAKVNIHSSSGATANGNIKRITNNNNSTNGRQSRNYQNRNGKTRYNNNSRHSQAANNAISFPNNYQARPEYIPNASHWLNNNSRNSYKQLSYFRQQQYYNNINYQQQLQTPYYYSMEPIFKSIESIKNQIEFYFSEENLKTDEFLRSKFKKANDGFIPMSLIGKFYRMVNLSLGGDPNLILASMREVLQHKETNHLEIALGSIEGAQKNMADDFNPLENYFIRRENWAEYAMESNFDENDDETEKYNIEKLLGPNDLDNYSYMGYPNFFPSNENGKKSQSYDQGEISRQFEQNLQIND
notes: source: yeast strain carrying the GFP fusion, in crude extract
B2: eIF4G1-GFP (natural protein, yeast, UniProt P39935 1-952, looked up)
chain: MTDETAHPTQSASKQESAALKQTGDDQQESQQQRGYTNYNNGSNYTQKKPYNSNRPHQQRGGKFGPNRYNNRGNYNGGGSFRGGHMGANSSNVPWTGYYNNYPVYYQPQQMAAAGSAPANPIPVEEKSPVPTKIEITTKSGEHLDLKEQHKAKLQSQERSTVSPQPESKLKETSDSTSTSTPTPTPSTNDSKASSEENISEAEKTRRNFIEQVKLRKAALEKKRKEQLEGSSGNNNIPMKTTPENVEEKGSDKPEVTEKTKPAEEKSAEPEVKQETPAEEGEQGEKGQIKEESTPKVLTFAERLKLKKQQKEREEKTEGKENKEVPVQEETKSAIESAPVPPSEQVKEETEVAETEQSNIDESATTPAIPTKSDEAEAEVEAEAGDAGTKIGLEAEIETTTDETDDGTNTVSHILNVLKDATPIEDVFSFNYPEGIEGPDIKYKKEHVKYTYGPTFLLQFKDKLNVKADAEWVQSTASKIVIPPGMGRGNRSRDSGRFGNNSSRGHDFRNTSVRNMDDRANSRTSSKRRSKRMNDDRRSNRSYTSRRDRERGSYRNEEKREDDKPKEEVAPLVPSANRWVPKFKSKKTEKKLAPDGKTELLDKDEVERKMKSLLNKLTLEMFDAISSEILAIANISVWETNGETLKAVIEQIFLKACDEPHWSSMYAQLCGKVVKELNPDITDETNEGKTGPKLVLHYLVARCHAEFDKGWTDKLPTNEDGTPLEPEMMSEEYYAAASAKRRGLGLVRFIGFLYRLNLLTGKMMFECFRRLMKDLTDSPSEETLESVVELLNTVGEQFETDSFRTGQATLEGSQLLDSLFGILDNIIQTAKISSRIKFKLIDIKELRHDKNWNSDKKDNGPKTIQQIHEEEERQRQLKNNSRSNSRRTNNSSNRHSFRRDAPPASKDSFITTRTYSQRNSQRAPPPKEEPAAPTSTATNMFSALMGESDDEE
notes: eIF4G1 of yeast, GFP fusion; the printed name puts GFP after the protein; also called eIFG1; source: yeast strain carrying the GFP fusion at the chromosomal location, in crude extract
B3: PAB1-GFP (natural protein, yeast, UniProt P04147 1-577, looked up)
chain: MADITDKTAEQLENLNIQDDQKQAATGSESQSVENSSASLYVGDLEPSVSEAHLYDIFSPIGSVSSIRVCRDAITKTSLGYAYVNFNDHEAGRKAIEQLNYTPIKGRLCRIMWSQRDPSLRKKGSGNIFIKNLHPDIDNKALYDTFSVFGDILSSKIATDENGKSKGFGFVHFEEEGAAKEAIDALNGMLLNGQEIYVAPHLSRKERDSQLEETKAHYTNLYVKNINSETTDEQFQELFAKFGPIVSASLEKDADGKLKGFGFVNYEKHEDAVKAVEALNDSELNGEKLYVGRAQKKNERMHVLKKQYEAYRLEKMAKYQGVNLFVKNLDDSVDDEKLEEEFAPYGTITSAKVMRTENGKSKGFGFVCFSTPEEATKAITEKNQQIVAGKPLYVAIAQRKDVRRSQLAQQIQARNQMRYQQATAAAAAAAAGMPGQFMPPMFYGVMPPRGVPFNGPNPQQMNPMGGMPKNGMPPQFRNGPVYGVPPQGGFPRNANDNNQFYQQKQRQALGEQLYKKVSAKTSNEEAAGKITGMILDLPPQEVFPLLESDELFEQHYKEASAAYESFKKEQEQQTEQA
notes: the printed name puts GFP after the protein; source: yeast strain carrying the GFP fusion, in crude extract
B4: SSD1-GFP (natural protein, yeast, UniProt P24276 1-1250, looked up)
chain: MSKNSNVNNNRSQEPNNMFVQTTGGGKNAPKQIHVAHRRSQSELTNLMIEQFTLQKQLEQVQAQQQQLMAQQQQLAQQTGQYLSGNSGSNNHFTPQPPHPHYNSNGNSPGMSAGGSRSRTHSRNNSGYYHNSYDNNNNSNNPGSNSHRKTSSQSSIYGHSRRHSLGLNEAKKAAAEEQAKRISGGEAGVTVKIDSVQADSGSNSTTEQSDFKFPPPPNAHQGHRRATSNLSPPSFKFPPNSHGDNDDEFIATSSTHRRSKTRNNEYSPGINSNWRNQSQQPQQQLSPFRHRGSNSRDYNSFNTLEPPAIFQQGHKHRASNSSVHSFSSQGNNNGGGRKSLFAPYLPQANIPELIQEGRLVAGILRVNKKNRSDAWVSTDGALDADIYICGSKDRNRALEGDLVAVELLVVDDVWESKKEKEEKKRRKDASMQHDLIPLNSSDDYHNDASVTAATSNNFLSSPSSSDSLSKDDLSVRRKRSSTINNDSDSLSSPTKSGVRRRSSLKQRPTQKKNDDVEVEGQSLLLVEEEEINDKYKPLYAGHVVAVLDRIPGQLFSGTLGLLRPSQQANSDNNKPPQSPKIAWFKPTDKKVPLIAIPTELAPKDFVENADKYSEKLFVASIKRWPITSLHPFGILVSELGDIHDPDTEIDSILRDNNFLSNEYLDQKNPQKEKPSFQPLPLTAESLEYRRNFTDTNEYNIFAISELGWVSEFALHVRNNGNGTLELGCHVVDVTSHIEEGSSVDRRARKRSSAVFMPQKLVNLLPQSFNDELSLAPGKESATLSVVYTLDSSTLRIKSTWVGESTISPSNILSLEQLDEKLSTGSPTSYLSTVQEIARSFYARRINDPEATLLPTLSLLESLDDEKVKVDLNILDRTLGFVVINEIKRKVNSTVAEKIYTKLGDLALLRRQMQPIATKMASFRKKIQNFGYNFDTNTADELIKGVLKIKDDDVRVGIEILLFKTMPRARYFIAGKVDPDQYGHYALNLPIYTHFTAPMRRYADHVVHRQLKAVIHDTPYTEDMEALKITSEYCNFKKDCAYQAQEQAIHLLLCKTINDMGNTTGQLLTMATVLQVYESSFDVFIPEFGIEKRVHGDQLPLIKAEFDGTNRVLELHWQPGVDSATFIPADEKNPKSYRNSIKNKFRSTAAEIANIELDKEAESEPLISDPLSKELSDLHLTVPNLRLPSASDNKQNALEKFISTTETRIENDNYIQEIHELQKIPILLRAEVGMALPCLTVRALNPFMKRV
notes: as for B1
B5: eIF4E-GFP (natural protein, yeast, UniProt P07260 1-213, looked up)
chain: MSVEEVSKKFEENVSVDDTTATPKTVLSDSAHFDVKHPLNTKWTLWYTKPAVDKSESWSDLLRPVTSFQTVEEFWAIIQNIPEPHELPLKSDYHVFRNDVRPEWEDEANAKGGKWSFQLRGKGADIDELWLRTLLAVIGETIDEDDSQINGVVLSIRKGGNKFALWTKSEDKEPLLRIGGKFKQVLKLTDDGHLEFFPHSSANGRHPQPSITL
notes: as for B3

Key:
Flag-PAB1 [1] = target: T1, Flag-PAB1; assay: co-IP + AUC; one-step anti-Flag bead purification from yeast crude extract (Tris pH 7.5, 0.15 M KCl, 2 mM MgCl2, 10% glycerol, 4°C), Flag peptide elution, then AU-FDS of the GFP fusion with AU-A230 or AU-A260 (20°C, 15,000 rpm); material migrating at 77S (monosomal translating complex); cycloheximide added to cells; cells on glucose (elongation), or glucose depleted 10 min and glucose added back for 1 min or 0 min (initiation)
Flag-PAB1 [2] = target: T1, Flag-PAB1; assay: co-IP + AUC; one-step anti-Flag bead purification from yeast crude extract (Tris pH 7.5, 0.15 M KCl, 2 mM MgCl2, 10% glycerol, 4°C), Flag peptide elution, then AU-FDS of the GFP fusion with AU-A230 or AU-A260 (20°C, 15,000 rpm); material migrating at 77S (monosomal translating complex); cycloheximide added to cells; cells on glucose (elongation), or glucose depleted 10 min and glucose added back for 1 min or 0 min …; settings: partners not purified
eIF4E-Flag [3] = target: T2, eIF4E-Flag; assay: co-IP + AUC; as a1, but material migrating from 90S to 200S (polysomal translating complexes); cells on glucose (elongation), or glucose depleted 10 min and glucose added back for 1 min (initiation); settings: partners not purified
Flag-PAB1 [4] = target: T1, Flag-PAB1; assay: as above; settings: partners not purified
eIF4E-Flag [5] = target: T2, eIF4E-Flag; assay: co-IP + AUC; one-step anti-Flag bead purification from yeast crude extract (Tris pH 7.5, 0.15 M KCl, 2 mM MgCl2, 10% glycerol, 4°C), Flag peptide elution, then AU-FDS of the GFP fusion with AU-A230 or AU-A260 (20°C, 15,000 rpm); material migrating at 77S (monosomal translating complex); cycloheximide added to cells; cells on glucose (elongation), or glucose depleted 10 min and glucose added back for 1 min or 0 min …; settings: partners not purified
Flag-SBP1 (yeast) = Flag-SBP1 (yeast) (UniProt P10080); assay: co-IP + AUC; one-step anti-Flag bead purification from yeast crude extract (Tris pH 7.5, 0.15 M KCl, 2 mM MgCl2, 10% glycerol, 4°C), Flag peptide elution, then AU-FDS of the GFP fusion with AU-A230 or AU-A260 (20°C, 15,000 rpm); material migrating at 77S (monosomal translating complex); cycloheximide added to cells; cells on glucose (elongation), or glucose depleted 10 min and glucose added back for 1 min or 0 min (initiation)
Flag-SBP1 (yeast), sequence (P10080 whole entry, the tested form may be a part): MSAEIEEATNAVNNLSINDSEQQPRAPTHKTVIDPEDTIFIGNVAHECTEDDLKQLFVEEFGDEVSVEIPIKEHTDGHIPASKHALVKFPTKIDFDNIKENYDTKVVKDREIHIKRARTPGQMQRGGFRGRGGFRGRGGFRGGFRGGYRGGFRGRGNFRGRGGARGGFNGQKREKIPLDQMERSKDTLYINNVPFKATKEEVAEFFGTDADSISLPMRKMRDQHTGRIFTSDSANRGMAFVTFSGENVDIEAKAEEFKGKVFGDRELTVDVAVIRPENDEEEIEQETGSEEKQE

Molecule	relative level in the 77S monosomal translating complex, mRNA set at 100 (elongation) (Flag-PAB1 [1]) [per 100 mRNA]	relative level in the 77S monosomal translating complex, mRNA set at 100 (elongation) (Flag-PAB1 [2]) [per 100 mRNA]	relative level in the 77S monosomal translating complex, mRNA set at 100 (initiation) (Flag-PAB1 [2]) [per 100 mRNA]	relative level in the polysomal translating complexes (90S to 200S), mRNA set at 100 (elongation) (eIF4E-Flag [3]) [per 100 mRNA]	relative level in the polysomal translating complexes (90S to 200S), mRNA set at 100 (initiation) (eIF4E-Flag [3]) [per 100 mRNA]	relative level in the polysomal translating complexes (90S to 200S), mRNA set at 100 (elongation) (Flag-PAB1 [4]) [per 100 mRNA]	relative level in the polysomal translating complexes (90S to 200S), mRNA set at 100 (initiation) (Flag-PAB1 [4]) [per 100 mRNA]	relative level in the 77S monosomal translating complex, mRNA set at 100 (elongation) (eIF4E-Flag [5]) [per 100 mRNA]	relative level in the 77S monosomal translating complex, mRNA set at 100 (initiation) (eIF4E-Flag [5]) [per 100 mRNA]	relative level in the 77S monosomal translating complex, mRNA set at 100 (elongation) (Flag-SBP1 (yeast)) [per 100 mRNA]
PUB1-GFP (from UniProt P32588 1-453) (natural protein)	< 0.3	–	–	–	–	–	–	–	–	–
B1	–	2.5	3.5	–	–	–	–	–	–	–
B2	–	5.6	8.7	75	79	18	26	19	20	< 0.3
B3	–	–	–	74	59	–	–	12	15	< 0.3
B4	–	1	1.8	–	–	–	–	–	–	–
B5	–	16	23	–	–	27	38	–	–	< 0.3
